The source of these data is IntAct's records for PubMed 18854162.

B1: CCCH-type zinc finger protein oma-1 (Caenorhabditis elegans), G5EC86 (parent)
chain: MNVNGENNEKIDEHHLESSLAGVPTLPVSPLDHAKDLSQTNPNAQIGDLVTQTANLIAIKKQLLEDIAFNQHIQSMQVRAIQSFPQNNQVAPPFQQFDPRRRGLARMQKPESYKTVICQAWLESKTCSFADNCRFAHGEEELRPTFVEPLQNNKYKTKLCDKYTTTGLCPYGKRCLFIHPDHGPNAYIRADKLLEVSQRHALADIRDQMEQHIMTNGRIAAPPLSAIQHPLEMFARPSTPDEPAAKLPLGPTPVSTRGPRYELPTKELHDAEGAMTYPPSRWPLDPSMFALDAWNMAHRPASPLDSMVLGSAPNAGSFGMLGKQNTPGGVSGYSSAGSTPSQDLSSSSLNAASAAAAAAYFANSAVAQSLLMKSVATDPMMSCNGPFSPMPGFDQLAENMTKHLNLW
partner: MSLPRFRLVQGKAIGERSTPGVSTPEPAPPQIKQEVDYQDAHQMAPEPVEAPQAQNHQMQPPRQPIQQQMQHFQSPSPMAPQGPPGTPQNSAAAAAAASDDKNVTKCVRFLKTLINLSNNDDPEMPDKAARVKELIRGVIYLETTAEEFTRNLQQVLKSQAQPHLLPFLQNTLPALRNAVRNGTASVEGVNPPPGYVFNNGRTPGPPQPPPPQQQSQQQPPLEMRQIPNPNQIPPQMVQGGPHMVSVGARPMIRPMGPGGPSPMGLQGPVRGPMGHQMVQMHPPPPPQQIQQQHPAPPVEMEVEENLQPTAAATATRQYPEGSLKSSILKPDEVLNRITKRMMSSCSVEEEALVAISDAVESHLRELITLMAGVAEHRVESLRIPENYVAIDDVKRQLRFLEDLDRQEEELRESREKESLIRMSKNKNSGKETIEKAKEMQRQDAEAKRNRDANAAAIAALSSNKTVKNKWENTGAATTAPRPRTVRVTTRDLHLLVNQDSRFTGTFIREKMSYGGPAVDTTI

In this assay the parent is B1. As to conditions: with taf4_caeel taf-4, O61707.
Regarding MNVNGENNEKIDEHHLESSLAGVPTLPVSPLDHAKDLSQTNPNAQIGDLVTQTANLIAIKKQLLEDIAFNQHIQSMQVRAIQSFPQNNQVAPPFQQFDPRRRGLARMQKPESYKTVICQAWLESKTCSFADNCRFAHGEEELRPTFVEPLQNNKYKTKLCDKYTTTGLCPYGKRCLFIHPDHGPNAYIRADKLLEVSQRHALADIRDQMEQHIMTNGRIAAPPLSAIQHPLEMFARPSAPDEPAAKLPLGPTPVSTRGPRYELPTKELHDAEGAMTYPPSRWPLDPSMFALDAWNMAHRPASPLDSMVLGSAPNAGSFGMLGKQNTPGGVSGYSSAGSTPSQDLSSSSLNAASAAAAAAYFANSAVAQSLLMKSVATDPMMSCNGPFSPMPGFDQLAENMTKHLNLW [T239A], the “effect of a mutation on the interaction” value was “decreasing interaction”.
